Laboratory results as given in paper PMC7667529.

Target: megalin (low-density lipoprotein receptor-related protein 2) (mouse (endogenous in hippocampal neurons)) (UniProt A2ARV4)
Sequence (A2ARV4 26-4660): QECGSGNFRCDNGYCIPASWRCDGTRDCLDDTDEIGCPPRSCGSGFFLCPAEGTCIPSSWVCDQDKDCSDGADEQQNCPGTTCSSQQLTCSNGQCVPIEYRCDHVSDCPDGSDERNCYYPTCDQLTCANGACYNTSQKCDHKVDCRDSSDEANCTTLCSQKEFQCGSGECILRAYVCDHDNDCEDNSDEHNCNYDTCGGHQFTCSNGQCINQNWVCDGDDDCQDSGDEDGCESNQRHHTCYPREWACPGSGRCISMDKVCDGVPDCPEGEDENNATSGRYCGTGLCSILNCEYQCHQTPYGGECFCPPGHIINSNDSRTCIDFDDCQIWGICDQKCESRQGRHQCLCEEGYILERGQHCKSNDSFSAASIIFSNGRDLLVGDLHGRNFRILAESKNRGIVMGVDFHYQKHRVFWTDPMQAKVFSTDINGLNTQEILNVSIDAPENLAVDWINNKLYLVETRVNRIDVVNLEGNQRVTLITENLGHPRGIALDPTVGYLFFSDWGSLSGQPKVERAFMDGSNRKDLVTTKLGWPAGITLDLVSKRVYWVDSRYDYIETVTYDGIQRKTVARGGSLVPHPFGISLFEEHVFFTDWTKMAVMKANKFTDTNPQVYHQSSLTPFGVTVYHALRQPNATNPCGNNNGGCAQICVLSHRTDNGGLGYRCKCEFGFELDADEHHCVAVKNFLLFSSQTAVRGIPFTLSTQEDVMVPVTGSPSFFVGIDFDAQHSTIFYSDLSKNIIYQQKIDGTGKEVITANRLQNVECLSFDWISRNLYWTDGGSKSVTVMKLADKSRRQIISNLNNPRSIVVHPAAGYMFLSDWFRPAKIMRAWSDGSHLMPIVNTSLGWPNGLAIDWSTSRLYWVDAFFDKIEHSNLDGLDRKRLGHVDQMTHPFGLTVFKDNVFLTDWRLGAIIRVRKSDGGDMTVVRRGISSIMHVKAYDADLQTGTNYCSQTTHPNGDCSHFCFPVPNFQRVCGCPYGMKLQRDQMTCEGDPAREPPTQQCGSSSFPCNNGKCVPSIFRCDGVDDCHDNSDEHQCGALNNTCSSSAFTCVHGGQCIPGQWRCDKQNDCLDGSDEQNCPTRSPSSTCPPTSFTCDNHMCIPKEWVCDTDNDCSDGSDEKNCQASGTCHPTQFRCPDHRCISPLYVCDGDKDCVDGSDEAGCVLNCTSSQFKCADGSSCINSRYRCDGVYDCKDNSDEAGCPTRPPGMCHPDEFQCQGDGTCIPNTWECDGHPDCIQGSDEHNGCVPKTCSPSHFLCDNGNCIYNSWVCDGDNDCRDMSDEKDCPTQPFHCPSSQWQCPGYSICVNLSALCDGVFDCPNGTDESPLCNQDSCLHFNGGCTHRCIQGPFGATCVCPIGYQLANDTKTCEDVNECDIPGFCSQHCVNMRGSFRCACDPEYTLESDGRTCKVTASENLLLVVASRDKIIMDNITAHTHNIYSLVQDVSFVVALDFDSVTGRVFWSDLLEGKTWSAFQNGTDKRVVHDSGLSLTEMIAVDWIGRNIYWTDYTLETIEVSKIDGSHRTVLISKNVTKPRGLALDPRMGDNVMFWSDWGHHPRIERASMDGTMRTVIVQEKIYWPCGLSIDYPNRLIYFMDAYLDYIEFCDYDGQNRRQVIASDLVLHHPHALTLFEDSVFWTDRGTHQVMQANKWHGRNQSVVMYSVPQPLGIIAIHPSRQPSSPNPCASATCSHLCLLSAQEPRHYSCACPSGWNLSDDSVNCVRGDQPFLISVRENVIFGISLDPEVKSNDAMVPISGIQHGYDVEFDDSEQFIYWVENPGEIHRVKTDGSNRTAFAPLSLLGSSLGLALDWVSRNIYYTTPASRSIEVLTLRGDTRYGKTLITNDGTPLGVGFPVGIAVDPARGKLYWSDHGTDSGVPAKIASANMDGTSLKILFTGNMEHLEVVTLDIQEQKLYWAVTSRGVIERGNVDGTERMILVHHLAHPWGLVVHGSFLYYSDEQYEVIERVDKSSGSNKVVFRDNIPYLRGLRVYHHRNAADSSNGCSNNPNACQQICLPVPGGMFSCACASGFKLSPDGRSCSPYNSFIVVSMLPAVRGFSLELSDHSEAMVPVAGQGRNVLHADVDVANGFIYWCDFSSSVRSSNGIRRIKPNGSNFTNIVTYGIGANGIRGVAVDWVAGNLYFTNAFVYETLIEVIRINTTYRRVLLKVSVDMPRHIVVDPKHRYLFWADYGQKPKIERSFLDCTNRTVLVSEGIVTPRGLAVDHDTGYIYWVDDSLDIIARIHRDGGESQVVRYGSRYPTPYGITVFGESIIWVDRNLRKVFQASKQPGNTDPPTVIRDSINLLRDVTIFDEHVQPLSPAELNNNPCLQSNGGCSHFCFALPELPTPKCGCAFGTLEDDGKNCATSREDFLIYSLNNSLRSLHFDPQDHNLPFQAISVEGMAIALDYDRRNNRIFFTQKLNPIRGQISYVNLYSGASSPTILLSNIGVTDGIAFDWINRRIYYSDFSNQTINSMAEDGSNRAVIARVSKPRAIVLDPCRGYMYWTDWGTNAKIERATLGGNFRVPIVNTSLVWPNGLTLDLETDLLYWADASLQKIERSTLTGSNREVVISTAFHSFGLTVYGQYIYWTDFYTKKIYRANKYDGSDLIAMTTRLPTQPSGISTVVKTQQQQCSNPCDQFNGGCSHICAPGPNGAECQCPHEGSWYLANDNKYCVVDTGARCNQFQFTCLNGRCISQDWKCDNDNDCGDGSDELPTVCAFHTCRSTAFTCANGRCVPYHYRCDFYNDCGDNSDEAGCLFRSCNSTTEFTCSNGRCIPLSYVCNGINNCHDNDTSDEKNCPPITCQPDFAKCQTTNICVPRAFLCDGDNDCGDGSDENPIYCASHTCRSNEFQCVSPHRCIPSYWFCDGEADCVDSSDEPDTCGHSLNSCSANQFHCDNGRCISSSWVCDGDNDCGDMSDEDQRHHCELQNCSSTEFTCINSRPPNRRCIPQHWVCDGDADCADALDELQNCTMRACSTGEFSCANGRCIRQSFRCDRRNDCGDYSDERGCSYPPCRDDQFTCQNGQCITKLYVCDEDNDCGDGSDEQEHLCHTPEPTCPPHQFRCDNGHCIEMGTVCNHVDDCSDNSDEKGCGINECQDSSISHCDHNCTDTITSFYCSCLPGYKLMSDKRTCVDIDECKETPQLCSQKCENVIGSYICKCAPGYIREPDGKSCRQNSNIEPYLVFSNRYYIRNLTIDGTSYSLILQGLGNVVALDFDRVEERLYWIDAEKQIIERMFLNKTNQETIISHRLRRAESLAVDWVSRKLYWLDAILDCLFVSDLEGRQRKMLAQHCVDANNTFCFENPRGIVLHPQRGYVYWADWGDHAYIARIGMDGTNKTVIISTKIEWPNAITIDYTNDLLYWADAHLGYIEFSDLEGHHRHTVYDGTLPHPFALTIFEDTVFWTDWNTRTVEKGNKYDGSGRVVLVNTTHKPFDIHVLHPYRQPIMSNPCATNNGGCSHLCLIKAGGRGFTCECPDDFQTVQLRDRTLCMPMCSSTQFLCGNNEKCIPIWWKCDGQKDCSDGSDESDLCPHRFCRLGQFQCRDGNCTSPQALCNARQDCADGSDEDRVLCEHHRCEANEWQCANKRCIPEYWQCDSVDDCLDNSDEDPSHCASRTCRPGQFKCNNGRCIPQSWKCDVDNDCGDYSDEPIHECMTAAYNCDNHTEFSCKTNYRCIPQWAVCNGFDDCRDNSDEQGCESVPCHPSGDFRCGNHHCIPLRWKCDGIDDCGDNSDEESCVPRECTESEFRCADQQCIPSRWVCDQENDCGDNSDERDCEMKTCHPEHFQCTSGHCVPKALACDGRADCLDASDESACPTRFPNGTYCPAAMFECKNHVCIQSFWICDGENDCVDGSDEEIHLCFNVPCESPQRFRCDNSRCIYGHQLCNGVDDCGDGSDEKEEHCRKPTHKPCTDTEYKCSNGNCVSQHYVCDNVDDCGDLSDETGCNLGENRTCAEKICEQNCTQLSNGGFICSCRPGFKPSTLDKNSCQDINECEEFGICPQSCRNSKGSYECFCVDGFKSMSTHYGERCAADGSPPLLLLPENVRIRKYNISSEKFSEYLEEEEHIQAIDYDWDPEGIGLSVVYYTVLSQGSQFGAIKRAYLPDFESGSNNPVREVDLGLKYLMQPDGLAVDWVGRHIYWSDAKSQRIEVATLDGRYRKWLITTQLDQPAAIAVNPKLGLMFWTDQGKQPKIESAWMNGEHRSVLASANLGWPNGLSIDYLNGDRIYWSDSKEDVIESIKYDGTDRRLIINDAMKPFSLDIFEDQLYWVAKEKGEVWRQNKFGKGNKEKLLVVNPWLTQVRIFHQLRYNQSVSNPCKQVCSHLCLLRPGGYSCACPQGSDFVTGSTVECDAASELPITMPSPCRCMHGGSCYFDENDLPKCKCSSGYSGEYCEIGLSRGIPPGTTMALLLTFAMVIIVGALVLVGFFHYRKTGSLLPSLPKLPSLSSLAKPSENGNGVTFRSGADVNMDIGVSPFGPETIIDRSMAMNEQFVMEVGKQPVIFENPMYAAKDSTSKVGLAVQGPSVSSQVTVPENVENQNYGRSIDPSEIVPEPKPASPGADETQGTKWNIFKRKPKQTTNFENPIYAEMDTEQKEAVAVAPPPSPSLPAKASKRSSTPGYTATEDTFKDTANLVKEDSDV

recombinant mouse transthyretin (from UniProt P07309 21-147) (ligand)
LRP2-ICD level (western blot, anti-GFP) in TTR KO neurons transfected with short-megalin-GFP and stimulated with recombinant mouse TTR (55 µg/ml, 4 h): 50 % increase
LRP2-ICD level (western blot, anti-megalin) in non-transfected WT hippocampal neurons (15 DIV) after 5 min with recombinant mouse TTR (55 µg/ml): 5 fold
